Results from US20190367612A1 (Daiichi Sankyo, published 2019).

T1: amino-terminal peptide of cynomolgus monkey GPRC5D …(Biotin)-NH2 (cynomolgus monkey, C-terminal lysine carrying biotin, C-terminal amide)
T1 construct: also called amino-terminal peptide of biotinylated cynomolgus monkey GPRC5D
T1 peptide: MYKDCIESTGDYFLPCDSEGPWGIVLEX

T2: human GPRC5D amino-terminal peptide MYKDCIESTGDYFLLCDAEGPWGIILE-K(Biotin)-NH2, having an intramolecular … (human, C-terminal lysine carrying biotin, C-terminal amide; intramolecularly formed disulfide bond)
T2 construct: Peptide Institute synthetic peptide; also called amino-terminal peptide of biotinylated human GPRC5D (disulfide bond present)
T2 peptide: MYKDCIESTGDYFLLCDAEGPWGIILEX

T3: mouse GPRC5D (mouse, UniProt Q9JIL6 1-344)
T3 construct: whole, on cells
T3 sequence (looked up): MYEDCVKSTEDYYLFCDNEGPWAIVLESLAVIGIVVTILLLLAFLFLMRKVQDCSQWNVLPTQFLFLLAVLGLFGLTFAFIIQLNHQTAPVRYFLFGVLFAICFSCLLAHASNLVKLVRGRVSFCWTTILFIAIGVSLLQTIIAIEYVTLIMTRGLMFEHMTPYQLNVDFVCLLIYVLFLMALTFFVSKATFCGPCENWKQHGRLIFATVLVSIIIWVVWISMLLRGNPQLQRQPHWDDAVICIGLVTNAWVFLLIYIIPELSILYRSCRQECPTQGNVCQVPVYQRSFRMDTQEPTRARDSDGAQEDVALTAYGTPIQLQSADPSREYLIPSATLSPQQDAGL


Tests used:
[1] = biological target: T1, amino-terminal peptide of cynomolgus …; assay: ELISA, chemiluminescence: biotinylated amino-terminal peptide of cynomolgus monkey GPRC5D on NeutrAvidin, culture supernatant of IgG-expressing cells (one concentration, not given), HRP anti-human Fab detection
Method: (§1) NeutrAvidin diluted to 1 μg/mL with PBS was added in an amount of 50 μL/well to 96-well Maxi-sorp plate, and the plate was left standing overnight at 4° C. for immobilization. After washing three times with an ELISA buffer, the amino-terminal peptide of the biotinylated human or cynomolgus monkey GPRC5D (used in Example 10)-1) diluted to 1 μg/mL with PBS was added thereto, and the plate was shaken at room temperature for 1 hour. After washing three times with an ELISA buffer, the plate was blocked with Blocker Casein and washed three times with an ELISA buffer. Then, the culture solution of the IgG-expressing FreeStyle 293F cells was added to the plate and reacted at room temperature for 2 hours. After washing three times with an ELISA buffer, a horseradish peroxidase (HRP)-labeled anti-human Fab antibody (Jackson ImmunoResearch Laboratories, Inc.) diluted 2500-fold with ELISA buffer was added thereto in an amount of 50 μL/well and reacted at room temperature for 1 hour. After washing five times with an ELISA buffer, SuperSignal Pico ELISA Chemiluminescent substrate was added. After 10 minutes, the chemiluminescence was measured using a plate reader.

human GPRC5D [2] = biological target: T4, human GPRC5D (human, UniProt Q9NZD1 1-345); assay: flow cytometry on KHM-1B cells (human GPRC5D), PE anti-human IgG Fc detection, rMFI = MFI minus isotype control
T4 construct: whole, on cells; also called hGPRC5D; G-protein coupled receptor family C group 5 member D
Method: (§2) Human multiple myeloma cell line KHM-1B cells expressing GPRC5D were adjusted to a concentration of 2×10⁶ cells/mL with PBS containing 5% FBS, inoculated in an amount of 100 μL/well to a 96-well U-bottomed microplate, and centrifuged to remove the supernatant. The culture supernatant of each human anti-GPRC5D antibody (full-length IgG form containing C2037, C3048, C3015, or C3022) obtained in Example 10)-5 or Human IgG isotype control antibody (Calbiochem/Merck Millipore Corp.) adjusted to 14 ng/mL to 30 μg/mL was added thereto in an amount of 100 μL/well, and the plate was left standing at 4° C. for 1 hour. The cells were washed twice with PBS containing 5% FBS. Then, R-Phycoerythrin AffiniPure F(ab′)2 Fragment Goat Anti-Human IgG, Fcγ Fragment Specific (Jackson ImmunoResearch Laboratories, Inc.) diluted 100-fold with PBS containing 5% FBS was added thereto in an amount of 100 μL/well, and the plate was left standing at 4° C. for 1 hour. The cells were washed twice with PBS containing 5% FBS and then resuspended in PBS containing 5% FBS, followed by detection using a flow cytometer (FACSCanto™ II; Becton, Dickinson and Company). The data was analyzed using Flowjo (Tree Star, Inc.). The PE fluorescence intensity of the cell fraction was plotted to a histogram, and the mean fluorescence intensity (MFI) was calculated. The MFI value of the control antibody was subtracted from the MFI value of the GPRC5D antibody to calculate a relative value of MFI (rMFI).

[3] = biological target: T2, human GPRC5D amino-terminal peptide …; assay: ELISA, chemiluminescence: biotinylated amino-terminal peptide of human GPRC5D on NeutrAvidin, culture supernatant of IgG-expressing cells (one concentration, not given), HRP anti-human Fab detection
Method: as §1

cynomolgus monkey GPRC5D = biological target: T5, cynomolgus monkey GPRC5D (cynomolgus monkey); assay: flow cytometry on KMS-11_cGPRC5D cells (cynomolgus monkey GPRC5D), PE anti-human IgG Fc detection, rMFI = MFI minus isotype control
T5 construct: whole, on cells; Stably expressed on KMS-11 cells (KMS-11_cGPRC5D); also called cGPRC5D

human GPRC5D [4] = biological target: T4, human GPRC5D; assay: flow cytometry on KHM-1B cells (human GPRC5D), culture supernatant, PE anti-human IgG Fc, rMFI over human IgG isotype control
Method: as §2, with “remove a” for “remove the”, “each humanized” for “each human”, “antibody” for “antibody (full-length IgG form containing C2037, C3048, C3015, or C3022)”, “Example 8)-3-1” for “Example 10)-5”

mouse GPRC5D = biological target: T3, mouse GPRC5D; assay: flow cytometry, in the same way as in Example 5)-2
[5] = biological target: T2, human GPRC5D amino-terminal peptide …; assay: SPR (Biacore T200), kinetic analysis: biotinylated amino-terminal peptide of human GPRC5D on Sensor Chip CAP, scFv as analyte
Method: The binding activity of the anti-GPRC5D antibodies against the amino-terminal peptide of human GPRC5D was tested by SPR using Biacore T200. The amino-terminal peptide of biotinylated human GPRC5D diluted to 2 nM with HBS-EP+ (manufactured by GE Healthcare Bio-Sciences Corp.) was immobilized on Sensor Chip CAP (manufactured by GE Healthcare Bio-Sciences Corp.) by contact at a rate of 10 μL/min for 180 seconds. Then, Kd was calculated by kinetic analysis using a plurality of concentrations of each scFv diluted with HBS-EP+ as analytes.

T4 sequence (Q9NZD1 whole entry): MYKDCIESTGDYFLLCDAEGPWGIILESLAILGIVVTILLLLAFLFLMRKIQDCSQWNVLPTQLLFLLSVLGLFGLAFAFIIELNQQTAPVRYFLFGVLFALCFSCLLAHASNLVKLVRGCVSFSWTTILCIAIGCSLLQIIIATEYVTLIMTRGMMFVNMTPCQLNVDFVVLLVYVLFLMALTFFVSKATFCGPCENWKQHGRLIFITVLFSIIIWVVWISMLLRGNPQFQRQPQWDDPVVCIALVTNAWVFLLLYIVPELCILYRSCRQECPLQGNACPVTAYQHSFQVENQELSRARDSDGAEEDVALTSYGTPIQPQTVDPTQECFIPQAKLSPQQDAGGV

binding result [1]	binding result [3]	EC50 (read off the curve) (cynomolgus monkey GPRC5D) [nM]	binding result (human GPRC5D [4])	Binder	other results
binds	binds			IgG form of the human antibody C3022 (antibody, V domains shown, Human IgG1; also called C3022 IgG form; full-length IgG form containing C3022) VH: QVQLVQSGAEVKKPGASVKVSCKASGYTFTGYYMHWVRQAPGQGLEWMGRINPNSGGTNYAQKFQGRVTMTRDTSISTAYMELSGLRSDDTAVYYCASGSVRHPWGQGTLVTVSS VL: QPVLTQPPSASGTPGQRVTISCSGSRSNIGGNIVSWYQQFPGTAPRLLTYADNQRPSGVPDRFSGSKSGTSASLAISGLQSEDEADYYCAAWDDSLNGVVFGGGTKLTVLG	binding result (human GPRC5D [2]): binds
binds	binds			IgG form of the human antibody C3048 (antibody, V domains shown, Human IgG1; also called C3048 IgG form; full-length IgG form containing C3048) VH: QVQLVQSGAEVKKPGSSVKVSCKASGGTFSRYAISWVRQAPGQGLEWMGGIIPIFGTANYAQKFQGRVTITADQSTRTAYMDLGRLRSEDTAVYYCALEGFRDSLKRNPFDIWGQGTMVTVSS VL: QSVVTQPPSVSAAPGQKVTISCSGGTTNIGSNYVSWYQQLPGTAPKFLMYENNKRPSGIPDRFSGSKSGTSATLAITGLQTGDEATYYCSTWDSSLNTGLFGGGTKLTVLG	EC50 (read off the curve) (human GPRC5D [2]): 7 to 8 nM
		~2	binds	humanized anti-GPRC5D antibody h7B4_H2/L2 (antibody, human IgG1, kappa, V domains shown, Human IgG1 / kappa) VH: EIQLQESGPGLVKPSQTLSLTCTVSGYTITSGYDWSWIRQPPGKGLEWIGYMSYRGSTNYNPSLKSRVTISRDTSKNQFSLKLSSVTAADTAVYYCALTRTYWYNYYYVLDAWGQGTLVTVSS VL: DIQMTQSPSSLSLSPGERATLSCKASQNINKYLDWYQQKPGQPPRLLIYNTNNLHTGIPDRFSGSGSGTDYTLTISRLEPEDFAVYYCLQRNSWYTFGQGTKVEIKR	
		~2	binds	humanized anti-GPRC5D antibody h7B4_H3/L1 (antibody, human IgG1, kappa, Human IgG1 / kappa) heavy: not shown light: EIVLTQSPGTLSLSPGERATLSCKASQNINKYLDWYQQKPGQPPRLLIYNTNNLHTGIPDRFSGSGSGTDYTLTISRLEPEDFAVYYCLQRNSWYTFGQGTKVEIKRTVAAPSVFIFPPSDEQLKSGTASVVCLLNNFYPREAKVQWKVDNALQSGNSQESVTEQDSKDSTYSLSSTLTLSKADYEKHKVYACEVTHQGLSSPVTKSFNRGEC	
		~2	binds	humanized anti-GPRC5D antibody h7B4_H5/L1 (antibody, human IgG1, kappa, V domains shown, Human IgG1 / kappa) VH: EIQLQESGPGLVKPSQTLSLTCTVSGYTITSGYDWSWIRKPPGNKMEWIAYMSYRGSTNYNPSLKSRVTISRDTSKNQFSLKLSSVTAADTAVYYCALTRTYWYNYYYVLDAWGQGTLVTVSS VL: EIVLTQSPGTLSLSPGERATLSCKASQNINKYLDWYQQKPGQPPRLLIYNTNNLHTGIPDRFSGSGSGTDYTLTISRLEPEDFAVYYCLQRNSWYTFGQGTKVEIKR	
				human chimeric 2A4 (antibody, human IgG1, V domains shown, Human IgG1 / kappa constant regions) VH: QVQLQQSGAELAKPGTSVKLSCKASGYTFTSYYIYWVKQRPGQGLEWIGYVYPGYGGTYYSDKFKGKATFTADTSSSTAYMLLGSLTPEDSAYYFCARRKGIIRGPGYFDYWGQGVMVTVSS VL: DIQMTQSPASLSASLGETVSIECLASEGISNSLAWYQQKPGKSPQLLIYGASSLQDGVPSRFSGSGSGTQYSLKISGMQPEDEGLYYCQQGYKYPPTFGGGTKLELKR	binding result (mouse GPRC5D): no binding
				human chimeric 7B4 (antibody, human IgG1, V domains shown, Human IgG1 / kappa constant regions) VH: EIHLQESGPGLVKPSQSLSLTCSVTGYTITSGYDWSWIRKFPGNKMEWMAYMSYRGSTNYNPSLKSRISITRDTSKNQFFLQLNSVTTEDTATYYCALTRTYWYNYYYVLDAWGQGASVTVSS VL: DIQMTQSPSFLSASVGERVTLSCKASQNINKYLDWYQQKLGEPPKLLIYNTNNLHTGIPSRFSGSGSGTDYTLTISGLQPEDVATYFCLQRNSWYTFGAGTKLELKR	binding result (mouse GPRC5D): no binding
binds	binds			IgG form of the human antibody C2037 (antibody, V domains shown, Human IgG1; also called C2037 IgG form; full-length IgG form containing C2037) VH: not shown VL: QPVLTQPPSASGTPGQRVTISCSGSNSNIGSRTVNWYQHLPGTAPRLLIYGNNQWPSGVPDRFSGSKSGSSASLAISGLRSEDEADYYCAAWDDSLSGVVFGGGTKLTVLG	EC50 (read off the curve) (human GPRC5D [2]): ~8 nM
				E1018 scFv (high binding mutant of C3022) (scFv) QVQLVQSGAEVKKPGASVKVSCKASGYTFTGYYMHWVRQAPGQGLEWMGRINPNSGGTNYAQKFQGRVTMTRDTSISTAYMELSGLRSDDTAVYYCKSGSVRPPWGQGTLVTVSSGGGGSGGGGSGGGGSQPVLTQPPSASGTPGQRVTISCSGSRSNIGGNIVSWYQQFPGTAPRLLTYRNTRRPSGVPDRFSGSKSGTSASLAISGLQSEDEADYYCAAWDDSLGGVVFGGGTKLTVL	Kd [5]: 0.0032 nM
